Assay results from PMC6199252, “Characterization and improved properties of Glutamine synthetase from Providencia vermicola by site-directed mutagenesis” (Scientific Reports, 2018).

Target: the molecule itself
Assay: SEC; tag-free purified protein on Superose 6 10/300 GL, 25 mM Tris-HCl pH 7.5, 150 mM NaCl; oligomer judged from the elution volume; data not shown

B1: Glutamine synthetase from Providencia vermicola (enzyme, UniProt A0AAX3RWL7 1-469, looked up)
chain: MSSEHVLSLIEEHKIKFIDLRFTDTKGKEQHITIPAHQVNEDFFEEGKMFDGSSIGGWKGINESDMVLMPDPSTAMLDPFFADPTLIIRCDILEPGTMQGYDRDPRSISQRAEDFLRSSGIADTVLFGPEPEFFIFDDIRFGNSMHSSYYHIDDIEAAWNTGTKYEGGNKGHRPGVKGGYFPVPPVDSSQDLRSAMCTTMEEMGLVVEAHHHEVATAGQNEVACRFNTMTKKADETQIYKYVVHNVAHAYGKTATFMPKPLVGDNGSGMHCHMSLSKDGINLFAGDKYGGLSEMALYYIGGIIKHARALNAFTNPTTNSYKRLVPGFEAPVMLAYSARNRSASIRIPVVASTKARRIEVRFPDPAANPYLAFAAQLMAGLDGIINKIHPGDAMDKNLYDLPPEEAKEIPTVAGSLEEALNELDKNREFLTRGGVFTNDAIDAYIELLRNDIQRVRMTPHPLEFEMYYSV
notes: Glutamine synthetase (GSI beta type, EC 6.3.1.2) of Providencia vermicola strain CGS6, cloned from genomic DNA; ORF of 1410 base pairs encoding 469 amino acids; Cloned between BamHI and XhoI of pGEX-6P-1; also called PveGS; GS; source: E. coli BL21 (DE3), pGEX-6p-1-PveGS, purified (GST Gene Fusion System, eluted from the GST tag by 3C protease); copies: 12
stoichiometry N: 12
